The text below walks through data of patent US20040205843A1 (NORTH CAROLINA STATE UNIVERSITY, published 2004).

B1: GST-AL1 119-180 (other)
chain: VDGRSARGGCQTSNDAAAEALNASSKEEALQIIREKIPEKYLFQFHNLNSNLDRIFDKTPEP

What all share (experiment): GST co-purification from insect cells, immunoblot
The target of assay [1] is T1, AL1 119-352 (tomato golden mosaic virus (TGMV), UniProt P03567 119-352).
T1 sequence: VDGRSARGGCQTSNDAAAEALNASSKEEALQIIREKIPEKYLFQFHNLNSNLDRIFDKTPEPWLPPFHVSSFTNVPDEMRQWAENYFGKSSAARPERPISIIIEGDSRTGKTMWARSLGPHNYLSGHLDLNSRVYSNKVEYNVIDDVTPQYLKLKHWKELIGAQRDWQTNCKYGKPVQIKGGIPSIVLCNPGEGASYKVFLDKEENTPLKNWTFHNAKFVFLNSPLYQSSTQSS

The target in assay [2] is T2, AL1 134-352 (tomato golden mosaic virus (TGMV), UniProt P03567 134-352).
T2 sequence: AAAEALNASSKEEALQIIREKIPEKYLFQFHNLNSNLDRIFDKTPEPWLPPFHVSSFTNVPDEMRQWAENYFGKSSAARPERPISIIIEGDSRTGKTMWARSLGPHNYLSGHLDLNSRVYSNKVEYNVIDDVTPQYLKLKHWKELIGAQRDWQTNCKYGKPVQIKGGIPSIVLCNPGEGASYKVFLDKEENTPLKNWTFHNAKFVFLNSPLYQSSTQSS

Assay [3] has as its target T3, AL1 160-352 (tomato golden mosaic virus (TGMV), UniProt P03567 160-352).
T3 sequence: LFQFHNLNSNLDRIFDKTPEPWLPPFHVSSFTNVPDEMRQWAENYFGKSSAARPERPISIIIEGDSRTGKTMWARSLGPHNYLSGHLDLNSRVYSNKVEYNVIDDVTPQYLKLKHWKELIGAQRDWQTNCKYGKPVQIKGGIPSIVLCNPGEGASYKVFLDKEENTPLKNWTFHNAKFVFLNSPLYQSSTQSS

The target of assay [4] is T4, AL1 147-352 (tomato golden mosaic virus (TGMV), UniProt P03567 147-352).
T4 sequence: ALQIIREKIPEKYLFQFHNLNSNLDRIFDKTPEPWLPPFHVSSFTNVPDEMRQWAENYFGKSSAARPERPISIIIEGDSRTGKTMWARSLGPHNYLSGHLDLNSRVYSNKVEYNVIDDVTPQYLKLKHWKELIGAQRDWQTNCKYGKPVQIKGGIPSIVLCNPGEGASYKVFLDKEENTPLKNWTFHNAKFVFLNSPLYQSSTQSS

The target of assay [5] is T5, TGMV AL1, wild type, full length, untagged (tomato golden mosaic virus (TGMV), UniProt P03567 1-352).
T5 construct: also called Rep; authentic AL1
T5 sequence: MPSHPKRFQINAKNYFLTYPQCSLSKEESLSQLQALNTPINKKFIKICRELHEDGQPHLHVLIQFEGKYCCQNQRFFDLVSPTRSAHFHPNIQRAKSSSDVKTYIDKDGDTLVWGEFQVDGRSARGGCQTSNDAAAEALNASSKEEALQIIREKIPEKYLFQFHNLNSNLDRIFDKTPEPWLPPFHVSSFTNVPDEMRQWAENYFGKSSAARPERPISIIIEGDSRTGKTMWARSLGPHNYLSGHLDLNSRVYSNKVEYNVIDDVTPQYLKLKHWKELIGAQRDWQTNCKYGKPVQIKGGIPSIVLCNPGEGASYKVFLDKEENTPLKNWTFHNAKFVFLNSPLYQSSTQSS

The target in assay [6] is T6, GST-AL1(119-352) (tomato golden mosaic virus (TGMV), UniProt P03567 119-352).
T6 construct: also called N-terminal truncation of AL1 fused to GST
T6 sequence: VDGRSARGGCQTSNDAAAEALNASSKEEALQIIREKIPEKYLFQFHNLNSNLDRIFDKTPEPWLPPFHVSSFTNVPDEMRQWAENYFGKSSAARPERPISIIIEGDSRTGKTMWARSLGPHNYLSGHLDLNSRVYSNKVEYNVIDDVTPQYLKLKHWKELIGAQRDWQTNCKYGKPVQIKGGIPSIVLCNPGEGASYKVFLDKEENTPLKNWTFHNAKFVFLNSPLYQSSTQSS

Assay [7] concerns the target B1.
The target of assay [8] is T7, GST-AL1(1-180) (tomato golden mosaic virus (TGMV), UniProt P03567 1-180).
T7 construct: also called C-terminal truncation of AL1 fused to GST
T7 sequence: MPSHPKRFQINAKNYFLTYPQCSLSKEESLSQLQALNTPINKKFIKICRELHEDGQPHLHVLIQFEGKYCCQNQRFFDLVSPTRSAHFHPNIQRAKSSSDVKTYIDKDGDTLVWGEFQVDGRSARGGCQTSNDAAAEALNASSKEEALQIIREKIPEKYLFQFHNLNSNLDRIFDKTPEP

The target of assay [9] is T8, Full length GST-AL1 1-352 (tomato golden mosaic virus (TGMV), UniProt P03567 1-352).
T8 sequence: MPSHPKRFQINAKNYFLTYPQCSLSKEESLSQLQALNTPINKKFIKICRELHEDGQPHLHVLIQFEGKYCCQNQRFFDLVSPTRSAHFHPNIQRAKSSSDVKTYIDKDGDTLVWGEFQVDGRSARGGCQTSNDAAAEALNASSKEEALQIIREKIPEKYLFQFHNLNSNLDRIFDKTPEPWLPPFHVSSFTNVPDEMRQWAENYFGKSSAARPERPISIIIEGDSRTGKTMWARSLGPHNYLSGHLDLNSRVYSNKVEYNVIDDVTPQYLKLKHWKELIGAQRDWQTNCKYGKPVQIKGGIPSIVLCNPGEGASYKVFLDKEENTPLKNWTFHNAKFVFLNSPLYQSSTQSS

As for B1, the binding result in [1] is on record as “binds”; in assay [2], “binds”; in assay [3], “no binding”; in [4], “no binding”; in assay [5], “binds”.

B2: AL1 EKY159 (Ala7), full length, untagged (other)
chain: MPSHPKRFQINAKNYFLTYPQCSLSKEESLSQLQALNTPINKKFIKICRELHEDGQPHLHVLIQFEGKYCCQNQRFFDLVSPTRSAHFHPNIQRAKSSSDVKTYIDKDGDTLVWGEFQVDGRSARGGCQTSNDAAAEALNASSKEEALQIIREKIPAAALFQFHNLNSNLDRIFDKTPEPWLPPFHVSSFTNVPDEMRQWAENYFGKSSAARPERPISIIIEGDSRTGKTMWARSLGPHNYLSGHLDLNSRVYSNKVEYNVIDDVTPQYLKLKHWKELIGAQRDWQTNCKYGKPVQIKGGIPSIVLCNPGEGASYKVFLDKEENTPLKNWTFHNAKFVFLNSPLYQSSTQSS
For B2, the binding result in assay [6] is on record as “binds”; in assay [7] it was “no binding”; in [8] it was “no binding”; in assay [9], “binds”.
